We go through nine molecules from patent US20190309079A1 (Regeneron, published 2019).

Test in all cases: Luminex, myc-captured protein on beads
For test [1], the target named is T1, human LEPR CRH1-Ig (D1,D2,D3)-MMH (human, UniProt P48357 22-427, limits assumed).
T1 construct: domain: CRH1-Ig (D1,D2,D3); also called human LEPR CRH1 (D1,D2,D3)-MMH
T1 sequence (looked up): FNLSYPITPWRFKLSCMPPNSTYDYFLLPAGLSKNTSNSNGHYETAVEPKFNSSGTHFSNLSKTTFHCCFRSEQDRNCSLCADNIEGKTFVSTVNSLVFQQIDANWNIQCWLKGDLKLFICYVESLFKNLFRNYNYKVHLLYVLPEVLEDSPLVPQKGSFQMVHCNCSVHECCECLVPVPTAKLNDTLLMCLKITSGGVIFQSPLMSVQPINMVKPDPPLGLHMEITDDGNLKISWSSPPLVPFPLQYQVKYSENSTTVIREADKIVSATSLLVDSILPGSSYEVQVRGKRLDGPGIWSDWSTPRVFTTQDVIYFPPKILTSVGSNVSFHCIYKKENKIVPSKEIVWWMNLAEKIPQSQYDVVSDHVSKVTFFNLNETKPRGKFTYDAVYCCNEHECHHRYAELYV
How it is done:
(§1) Aliquots of microspheres with immobilized anti-myc monoclonal antibodies, prepared as described above, were added individually to 1 mL of the each of these protein supernatants. The microspheres were gently mixed, incubated for two hours at 25° C., washed twice with 1 mL of DBPS, centrifuged to remove the supernatant and finally resuspended in 1 mL of DPBS buffer. […] of anti-myc IgG coupled microspheres from individual reactions with full length human LEPR and with each of the human LEPR domain proteins were withdrawn and mixed together in 3.6 mL of PBS+20 mg/mL BSA+0.05% sodium azide (blocking buffer).
(§2) From this mixed pool, 75 μL of microspheres were plated per well on a 96 well filter plate (Millipore, Cat. No: MSBVN1250) and mixed with 25 μL of individual anti-human LEPR monoclonal antibodies (0.5 or 5 μg/mL), incubated for two hours at 25° C. and then washed twice with 200 μL of DPBS with 0.05% Tween 20 (washing buffer). […] After 30 minutes, the samples were washed twice with 200 µL of washing buffer and resuspended in 150 μL of wash buffer. The Median Fluorescence intensity (MFI) of the microspheres was measured in a Luminex Analyzer.

Test [2] concerns the target T2, human LEPR extracellular domain expressed with a C-terminal myc-myc-hexahistidine tag (hLEPR.mmh) (human, UniProt P48357 22-839).
T2 construct: tag included in the entry; also called human LEPR-MMH; monomeric human LEPR
How it is done: as §1, §2

In test [3] the target is T3, human LEPR Ig-CRH2-FNIII-MMH (human, UniProt P48357 330-839, limits assumed).
T3 construct: domain: Ig-CRH2-FNIII
T3 sequence (looked up): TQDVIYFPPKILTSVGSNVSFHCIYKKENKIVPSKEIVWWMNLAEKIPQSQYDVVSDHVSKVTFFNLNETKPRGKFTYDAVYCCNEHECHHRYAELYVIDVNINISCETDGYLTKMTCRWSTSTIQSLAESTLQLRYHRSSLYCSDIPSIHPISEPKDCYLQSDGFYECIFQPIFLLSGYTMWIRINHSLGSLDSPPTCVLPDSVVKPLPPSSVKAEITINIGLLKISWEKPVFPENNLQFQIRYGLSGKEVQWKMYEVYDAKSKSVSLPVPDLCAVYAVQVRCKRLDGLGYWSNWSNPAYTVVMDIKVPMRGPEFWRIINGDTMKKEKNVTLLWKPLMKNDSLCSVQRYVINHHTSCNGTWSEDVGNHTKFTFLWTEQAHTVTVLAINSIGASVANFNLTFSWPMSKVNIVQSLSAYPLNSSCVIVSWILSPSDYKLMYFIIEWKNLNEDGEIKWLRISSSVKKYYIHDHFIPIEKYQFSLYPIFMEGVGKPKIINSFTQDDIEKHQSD
The method, then:
as §1, §2

Another test deals with T4, human LEPR CRH2-MMH (human, UniProt P48357 428-634, limits assumed).
T4 construct: domain: CRH2
T4 sequence (looked up): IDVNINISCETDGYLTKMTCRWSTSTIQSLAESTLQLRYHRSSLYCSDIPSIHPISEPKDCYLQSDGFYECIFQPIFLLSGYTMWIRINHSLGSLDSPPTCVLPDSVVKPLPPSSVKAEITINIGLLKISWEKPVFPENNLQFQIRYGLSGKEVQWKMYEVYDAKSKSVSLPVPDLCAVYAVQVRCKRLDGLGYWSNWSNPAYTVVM
How it is done:
as §1, §2

In a further test the target is T5, human LEPR CRH1 (D1)-MMH (human, UniProt P48357 22-229, limits assumed).
T5 construct: domain: CRH1 (D1)
T5 sequence (looked up): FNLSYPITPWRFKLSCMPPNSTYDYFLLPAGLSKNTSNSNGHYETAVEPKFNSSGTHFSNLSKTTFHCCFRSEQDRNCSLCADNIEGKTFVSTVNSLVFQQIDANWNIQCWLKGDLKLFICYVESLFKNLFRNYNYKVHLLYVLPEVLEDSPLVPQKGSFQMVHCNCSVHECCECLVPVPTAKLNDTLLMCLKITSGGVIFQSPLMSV
The method, then:
as §1, §2

B1: H4H18417P2 (antibody, V domains shown)
VH: QVQLVESGGGVVQPGRSLRLSCAASGFTFSTYGMHWVRQAPGKGLEWVSVISYDESNKYYADSVKGRFTISRDNSKNALYLQMNSLRNEDTAVYYCARDRPFGLVTGWFDPWGQGTLVTVSS
VL: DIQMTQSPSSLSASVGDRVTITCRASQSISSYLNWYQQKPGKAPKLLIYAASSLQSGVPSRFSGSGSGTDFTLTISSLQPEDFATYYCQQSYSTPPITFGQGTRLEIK
As to B1, the “Luminex MFI” value in test [1] came to 3330 MFI; in test [2], 4890 MFI; in test [3], 37 MFI; with human LEPR CRH2-MMH, 39 MFI; with human LEPR CRH1 (D1)-MMH, 10 MFI.

B2: H4H16650P2 (antibody, V domains shown)
VH: QVQLVESGGGVVQPGKSLRLSCVASGFTFSSDAMYWVRQAPGKGLEWVAVIYYDGNYQYYEDSVKGRFTISRDNSQNTLDLQMNSLRVDDTAVYFCARLNWDYWYLDLWGRGTLVTVSS
VL: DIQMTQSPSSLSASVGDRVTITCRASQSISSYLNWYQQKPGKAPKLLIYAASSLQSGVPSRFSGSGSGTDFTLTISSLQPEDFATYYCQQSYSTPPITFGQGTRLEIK
Regarding B2, the “Luminex MFI” value is 2560 MFI in test [1]; 7600 MFI in test [2]; 110 MFI in test [3]; 16 MFI with human LEPR CRH2-MMH; 8 MFI in the test with human LEPR CRH1 (D1)-MMH.

B3: H4H18449P2 (antibody, human IgG4, V domains shown)
VH: EVQLVESGGGLVQPGGSLRLSCVASGFTFNKYDMHWVRQTTGKGLEWVSGIDTDGDTYYPGSVKGRFTISRENAENSLYLQMNGLRVGDTAVYYCARWPWSGFYGAFDIWGQGTMVTVSS
VL: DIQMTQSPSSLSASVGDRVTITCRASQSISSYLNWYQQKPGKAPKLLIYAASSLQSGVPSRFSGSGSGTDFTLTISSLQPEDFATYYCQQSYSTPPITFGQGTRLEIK
notes: human IgG4 Fc
As for B3, the “Luminex MFI” value was 2060 MFI in test [1]; 7980 MFI in test [2]; 43 MFI in test [3]; 15 MFI with human LEPR CRH2-MMH; 20 MFI in the test with human LEPR CRH1 (D1)-MMH.

B4: H4H18446P2 (antibody, human IgG4, V domains shown)
VH: EVQLVESGGGLVQPGGSLRLSCAASGFTFSNYGMTWVRQAPGKGLEWVSAITGGGGSTYYSNSVKGRFTISRDNSKNTVYLRMNSVRAEDTAVYYCAKYKWNFVDDWGQGTTVTVSS
VL: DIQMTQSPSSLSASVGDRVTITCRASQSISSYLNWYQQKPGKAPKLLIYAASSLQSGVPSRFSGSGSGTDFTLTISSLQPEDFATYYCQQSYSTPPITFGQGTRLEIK
notes: human IgG4 Fc
In the case of B4, the “Luminex MFI” value in test [2] is 10500 MFI; in test [3], 16900 MFI; with human LEPR CRH2-MMH, 65 MFI; in the test with human LEPR CRH1 (D1)-MMH it was 17 MFI.

B5: H4H16679P2 (antibody, V domains shown)
VH: QVQLVESGGGVVQPGRSLRLSCTASGFTFSSYAMYWVRQAPGKGLEWVSVIYYDGSYKYYADSVKGRFTISRDNSKNTLYLQMDSLRAEDTAVYYCASYNWNYWYFDFWGRGTLVTVSS
VL: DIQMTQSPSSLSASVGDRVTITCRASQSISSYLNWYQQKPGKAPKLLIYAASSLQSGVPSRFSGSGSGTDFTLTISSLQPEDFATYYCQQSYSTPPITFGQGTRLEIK
On to B5, for which the “Luminex MFI” value in test [1] came to 2800 MFI; in test [2] it was 7510 MFI; in test [3], 42 MFI; with human LEPR CRH2-MMH it was 33 MFI; in the test with human LEPR CRH1 (D1)-MMH, 12 MFI.

B6: H4H17321P2 (antibody, V domains shown)
VH: QVQLVESGGGVVQPGRSLRLSCEASGFSSSDNAMYWVRQAPGKGLEWVSVIYHDGSYKYYEDSVKGRFTIARDNSKNTLYLQMNSLRAEDTAVYYCARYNWNHWYFDVWGRGTLVTVSS
VL: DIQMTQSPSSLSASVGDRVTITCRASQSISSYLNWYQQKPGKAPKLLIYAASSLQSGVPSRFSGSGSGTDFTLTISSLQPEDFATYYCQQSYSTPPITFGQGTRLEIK
With B6, the “Luminex MFI” value in test [1] is 1750 MFI; in test [2] it was 4700 MFI; in test [3], 14 MFI; with human LEPR CRH2-MMH it was 116 MFI; in the test with human LEPR CRH1 (D1)-MMH it was 9 MFI.

B7: H4H17319P2 (antibody, V domains shown)
VH: QVQLVESGGSVVQPGRSLRLSCAASGFTFSTYAMYWVRQTPGKGLEWVAVLYSDGSNKYYIDSVKGRFTISRDTSTNTLYLQMSSLRADDSALYYCARLNWDYWYFDLWGRGTLVTVSS
VL: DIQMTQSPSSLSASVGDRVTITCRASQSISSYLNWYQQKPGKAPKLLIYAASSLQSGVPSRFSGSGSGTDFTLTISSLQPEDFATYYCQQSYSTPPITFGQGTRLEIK
notes: also called REGN4461
With B7, the “Luminex MFI” value was determined as 938 MFI in test [1]; 3300 MFI in test [2]; 8 MFI in test [3]; 91 MFI with human LEPR CRH2-MMH; 8 MFI in the test with human LEPR CRH1 (D1)-MMH.

B8: H4H18438P2 (antibody, V domains shown)
VH: QVQLVESGGGVVQPGRSLRLSCAASGFSFNTYGMHWVRQAPGKGLEWVTIIWYDGSIKYYADSVKGRFTISRDNSKNTLYLQMNSLRAEDTAVYYCARGGYSGYLYFDYWGQGTLVTVSS
VL: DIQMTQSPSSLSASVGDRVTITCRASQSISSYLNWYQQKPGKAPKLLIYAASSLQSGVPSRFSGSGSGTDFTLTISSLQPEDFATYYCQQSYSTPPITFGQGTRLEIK
For the molecule B8, the “Luminex MFI” value in test [1] amounted to 6570 MFI; in test [2], 6250 MFI; in the test with human LEPR CRH1 (D1)-MMH, 13 MFI.

B9: H4H18445P2 (antibody, human IgG4, V domains shown)
VH: QVQLQESGPGLVKPSQTLSLTCTVSGGSISSGGDYWSWIRQLPGKGLEWIGYIYYSGSAYYNPSLKSRGTISIDTSKNQFSLKLTSVTAADTAVYFCVKLRFLEWFLGGWFGPWGQGTLVTVSS
VL: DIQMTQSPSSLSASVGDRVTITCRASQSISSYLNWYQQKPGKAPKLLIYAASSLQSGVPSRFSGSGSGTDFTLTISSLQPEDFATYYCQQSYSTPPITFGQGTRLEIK
notes: human IgG4 Fc
For the molecule B9, the “Luminex MFI” value is 22 MFI in test [1]; 6570 MFI in test [2]; 14500 MFI in test [3]; 17 MFI with human LEPR CRH2-MMH; 12 MFI with human LEPR CRH1 (D1)-MMH.
